The values below come from US20220332804A1 (CSL INNOVATION, published 2022).

Experiment [1] deals with T1, human FcRn/β2m (human, UniProt P55899 24-297; P61769 21-119).
T1 construct: Soluble FcRn/β2m injected as analyte over immobilised antibody; also called neonatal Fc receptor
In words: SPR, antibody immobilised, FcRn/β2m analyte, pH 6.0.
Method: (§1) Anti-C2 mAbs (1 μg/mL at pH 5) were immobilized on a carboxylmethyldextran (CM5) sensorchip surface using standard EDC/NHS chemistry. Human and Cyno FcRn/β2m (40 μM) were prepared in running buffer (10 mM HEPES, 150 mM NaCl, 10 mM MES adjusted to either pH 6 or pH 7.3) and injected on the immobilized anti-C2 surface at concentrations ranging from 0.078 to 40 μM, prepared in two-fold dilutions in running buffer. Association and dissociation phases were monitored for 180 and 600 seconds, respectively. […] Double referenced sensorgrams were fitted to either a 1:1 kinetic model (pH 6), including a term for mass transport limitation or to a 1:1 steady state model (pH 7.3) where responses at the end of the association phase were plotted against respective concentrations.
(§2) Binding to both human and cynomolgus monkey FcRn was tested using the SPR methods described above.

Experiment [2] deals with T1, human FcRn/β2m. As to the kind of experiment: SPR, antibody immobilised, FcRn/β2m analyte, pH 7.3. (In general: In SPR one partner is held on a chip, and binding of the other changes the refractive index at the surface.)
Method: as §1, §2
Experiment [3] concerns the target T2, human C2a (activated human C2) (human, UniProt P06681 244-752).
T2 construct: the whole entry is named here; also called huC2a
T2 sequence: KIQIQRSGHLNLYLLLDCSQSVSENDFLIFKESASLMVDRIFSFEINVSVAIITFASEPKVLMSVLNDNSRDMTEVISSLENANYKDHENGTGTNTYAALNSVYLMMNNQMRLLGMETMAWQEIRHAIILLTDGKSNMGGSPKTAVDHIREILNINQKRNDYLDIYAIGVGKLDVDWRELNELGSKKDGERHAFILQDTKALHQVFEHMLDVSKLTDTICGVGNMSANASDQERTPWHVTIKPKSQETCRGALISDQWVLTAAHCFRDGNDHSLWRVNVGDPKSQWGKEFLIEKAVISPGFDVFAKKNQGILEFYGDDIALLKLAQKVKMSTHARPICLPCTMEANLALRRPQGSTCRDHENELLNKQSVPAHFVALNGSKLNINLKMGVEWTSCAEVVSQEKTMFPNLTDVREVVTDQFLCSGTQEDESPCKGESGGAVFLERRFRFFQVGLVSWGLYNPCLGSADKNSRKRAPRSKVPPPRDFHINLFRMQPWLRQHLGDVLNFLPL
As to the kind of experiment: SPR, HBS-EP, pH 7.3, 37 C.
Method: (§3) Surface plasmon resonance (SPR, Biacore) was used for all binding affinity analyses. In brief, goat anti-human IgG was directly immobilised onto the carboxymethyl dextran surface of CM5 sensorchips to approximately 12,000 RU using standard NHS/EDC chemistry at pH 5. The immobilised antibody surface was pre-conditioned with ten injections of polyclonal human IgG (Privigen 60 s) prepared at 1 μg/mL. Ligands (anti-C2 mAbs) were captured at the beginning of each cycle as described below. An adjacent spot or flow cell in which only Polyclonal IgG was capture was used as a reference surface. The goat anti-human IgG Fc antibody surface was regenerate in 100 mM H3PO4, injected for 45 seconds at the end of each cycle. Experiments were performed at 37° C. and the flow rate of each experiment was kept constant at 30 μL/min.
(§4) Purified human C2 zymogen and human C2a were tested at concentrations ranging from 1.9 to 500 nM while human C2b was tested at concentrations ranging from 1.9 to 1000 nM. All experiments were performed in HBS-EP buffer supplemented with 0.1% BSA at 37° C. and pH 7.3. Each antibody was tested against human C2 zymogen and human C2a in duplicate and against C2b in quadruplicate. The flow rate was set to 30 μL/min. Each analyte concentration was tested in duplicate.

For another experiment, the target named is T3, human C2b (human, UniProt P06681 21-243).
T3 construct: the whole entry is named here
T3 sequence: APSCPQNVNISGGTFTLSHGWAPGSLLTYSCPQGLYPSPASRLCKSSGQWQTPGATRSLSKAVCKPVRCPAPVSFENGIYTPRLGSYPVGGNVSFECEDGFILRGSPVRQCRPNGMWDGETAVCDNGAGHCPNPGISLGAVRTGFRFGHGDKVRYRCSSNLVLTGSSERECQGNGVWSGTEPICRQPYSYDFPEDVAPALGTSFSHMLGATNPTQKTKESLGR
As to the kind of experiment: SPR, HBS-EP, pH 7.3, 37 C.

Experiment [4] concerns the target T4, human complement C2 zymogen (human, UniProt P06681 21-752).
T4 construct: also called huC2; human C2
T4 sequence: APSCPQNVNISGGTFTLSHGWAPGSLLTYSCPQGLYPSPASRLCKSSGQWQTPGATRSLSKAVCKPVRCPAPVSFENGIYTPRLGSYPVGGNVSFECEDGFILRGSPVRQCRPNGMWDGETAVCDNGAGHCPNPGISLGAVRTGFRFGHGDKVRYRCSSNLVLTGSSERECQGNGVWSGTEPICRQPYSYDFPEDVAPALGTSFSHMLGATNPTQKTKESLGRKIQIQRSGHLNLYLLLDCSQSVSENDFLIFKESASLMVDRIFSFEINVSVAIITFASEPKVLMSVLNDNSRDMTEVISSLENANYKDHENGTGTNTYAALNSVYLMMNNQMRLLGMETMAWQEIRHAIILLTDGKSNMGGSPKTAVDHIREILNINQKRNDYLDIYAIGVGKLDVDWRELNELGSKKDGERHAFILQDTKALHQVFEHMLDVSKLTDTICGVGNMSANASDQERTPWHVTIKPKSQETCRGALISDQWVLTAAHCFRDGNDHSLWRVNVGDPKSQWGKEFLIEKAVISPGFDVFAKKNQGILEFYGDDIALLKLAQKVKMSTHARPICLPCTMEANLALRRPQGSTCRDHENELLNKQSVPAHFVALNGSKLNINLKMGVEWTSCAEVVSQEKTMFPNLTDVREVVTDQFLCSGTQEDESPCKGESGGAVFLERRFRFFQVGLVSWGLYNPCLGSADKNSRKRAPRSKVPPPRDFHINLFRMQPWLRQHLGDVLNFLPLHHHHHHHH
In words: SPR, human C2 zymogen analyte, HBS-EP, pH 7.3, 37 C.
Method: as §3, §4

T1 sequence (P55899 24-297 limits assumed, chain 1 of 2): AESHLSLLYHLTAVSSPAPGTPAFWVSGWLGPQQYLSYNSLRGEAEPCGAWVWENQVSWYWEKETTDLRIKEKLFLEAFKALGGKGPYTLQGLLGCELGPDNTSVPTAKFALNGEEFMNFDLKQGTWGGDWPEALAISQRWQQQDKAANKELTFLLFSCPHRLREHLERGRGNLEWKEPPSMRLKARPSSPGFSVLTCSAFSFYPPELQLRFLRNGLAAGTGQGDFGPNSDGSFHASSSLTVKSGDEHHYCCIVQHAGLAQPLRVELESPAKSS
T1 sequence (P61769 21-119 limits assumed, chain 2 of 2): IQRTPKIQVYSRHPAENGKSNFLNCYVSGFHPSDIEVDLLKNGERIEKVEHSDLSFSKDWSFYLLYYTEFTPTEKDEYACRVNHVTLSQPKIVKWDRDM
Method for human C2b: as §3, §4

B1: RF16-226 M252Y, N286E, N434Y (antibody, human IgG4 S228P, lambda)
heavy: EVQLVQSGAEVKKPGESLKISCKGSGYSFTSYWIGWVRQMPGKGLEWMGIIYPGDSDTRYSPSFQGQVTISADKSISTAYLQWSSLKASDTAMYYCARRFSYSSGWDMWGQGTLVTVSSASTKGPSVFPLAPCSRSTSESTAALGCLVKDYFPEPVTVSWNSGALTSGVHTFPAVLQSSGLYSLSSVVTVPSSSLGTKTYTCNVDHKPSNTKVDKRVESKYGPPCPPCPAPEFLGGPSVFLFPPKPKDTLYISRTPEVTCVVVDVSQEDPEVQFNWYVDGVEVHEAKTKPREEQFNSTYRVVSVLTVLHQDWLNGKEYKCKVSNKGLPSSIEKTISKAKGQPREPQVYTLPPSQEEMTKNQVSLTCLVKGFYPSDIAVEWESNGQPENNYKTTPPVLDSDGSFFLYSRLTVDKSRWQEGNVFSCSVMHEALHYHYTQKSLSLSLGK
light: SYELTQPPSVSVSPGQTARITCSGDALTSKYVAWYQQKSGLAPLLVIYEDTRRPSGIPAKFSGSSSGSVATLTISGAHGDDEADYYCYSTDASGHQRVFGGGTKLTVLSQPKAAPSVTLFPPSSEELQANKATLVCLISDFYPGAVTVAWKADGSPVKAGVETTKPSKQSNNKYAASSYLSLTPEQWKSHRSYSCQVTHEGSTVEKTVAPTECS
As for B1, the Kd is 22 nM with human FcRn/β2m [1] and 3300 nM with human FcRn/β2m [2].

B2: RF16-226 M252Y, V308P, N434Y (antibody, human IgG4 S228P, lambda)
heavy: EVQLVQSGAEVKKPGESLKISCKGSGYSFTSYWIGWVRQMPGKGLEWMGIIYPGDSDTRYSPSFQGQVTISADKSISTAYLQWSSLKASDTAMYYCARRFSYSSGWDMWGQGTLVTVSSASTKGPSVFPLAPCSRSTSESTAALGCLVKDYFPEPVTVSWNSGALTSGVHTFPAVLQSSGLYSLSSVVTVPSSSLGTKTYTCNVDHKPSNTKVDKRVESKYGPPCPPCPAPEFLGGPSVFLFPPKPKDTLYISRTPEVTCVVVDVSQEDPEVQFNWYVDGVEVHNAKTKPREEQFNSTYRVVSVLTPLHQDWLNGKEYKCKVSNKGLPSSIEKTISKAKGQPREPQVYTLPPSQEEMTKNQVSLTCLVKGFYPSDIAVEWESNGQPENNYKTTPPVLDSDGSFFLYSRLTVDKSRWQEGNVFSCSVMHEALHYHYTQKSLSLSLGK
light: SYELTQPPSVSVSPGQTARITCSGDALTSKYVAWYQQKSGLAPLLVIYEDTRRPSGIPAKFSGSSSGSVATLTISGAHGDDEADYYCYSTDASGHQRVFGGGTKLTVLSQPKAAPSVTLFPPSSEELQANKATLVCLISDFYPGAVTVAWKADGSPVKAGVETTKPSKQSNNKYAASSYLSLTPEQWKSHRSYSCQVTHEGSTVEKTVAPTECS
In the case of B2, the Kd with human FcRn/β2m [1] turned out to be 10 nM; with human FcRn/β2m [2], 1200 nM.

B3: RF16-226G (antibody, human IgG4 S228P, lambda)
heavy: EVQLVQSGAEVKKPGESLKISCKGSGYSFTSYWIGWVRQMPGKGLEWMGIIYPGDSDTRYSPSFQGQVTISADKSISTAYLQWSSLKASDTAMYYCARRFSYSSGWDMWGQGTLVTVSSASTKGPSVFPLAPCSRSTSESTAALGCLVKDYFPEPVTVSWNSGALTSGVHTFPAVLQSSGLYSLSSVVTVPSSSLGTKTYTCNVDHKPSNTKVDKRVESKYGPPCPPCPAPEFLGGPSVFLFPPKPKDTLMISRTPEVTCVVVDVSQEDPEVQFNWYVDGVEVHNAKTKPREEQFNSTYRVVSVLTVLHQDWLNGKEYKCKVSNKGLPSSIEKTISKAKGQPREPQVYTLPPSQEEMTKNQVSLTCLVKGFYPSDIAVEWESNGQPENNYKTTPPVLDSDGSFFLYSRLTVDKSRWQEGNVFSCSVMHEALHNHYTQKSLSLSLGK
light: SYELTQPPSVSVSPGQTARITCSGDALTSKYVAWYQQKSGQAPVLVIYEDTRRPSGIPERFSGSSSGTMATLTISGAQVEDEADYYCYSTDASGHQRVFGGGTKLTVLGQPKAAPSVTLFPPSSEELQANKATLVCLISDFYPGAVTVAWKADSSPVKAGVETTTPSKQSNNKYAASSYLSLTPEQWKSHRSYSCQVTHEGSTVEKTVAPTECS
As to B3, the binding result is listed as “no binding (tested: C2a tested up to 500 nM)” in experiment [3] and “no binding (tested: C2b tested up to 1000 nM)” with human C2b. In experiment [4], the Kd stood at 7 nM.

B4: RF16-226G YPY (RF16-226G with the M252Y, V308P and N434Y Fc mutations) (antibody, human IgG4 S228P, lambda)
heavy: EVQLVQSGAEVKKPGESLKISCKGSGYSFTSYWIGWVRQMPGKGLEWMGIIYPGDSDTRYSPSFQGQVTISADKSISTAYLQWSSLKASDTAMYYCARRFSYSSGWDMWGQGTLVTVSSASTKGPSVFPLAPCSRSTSESTAALGCLVKDYFPEPVTVSWNSGALTSGVHTFPAVLQSSGLYSLSSVVTVPSSSLGTKTYTCNVDHKPSNTKVDKRVESKYGPPCPPCPAPEFLGGPSVFLFPPKPKDTLYISRTPEVTCVVVDVSQEDPEVQFNWYVDGVEVHNAKTKPREEQFNSTYRVVSVLTPLHQDWLNGKEYKCKVSNKGLPSSIEKTISKAKGQPREPQVYTLPPSQEEMTKNQVSLTCLVKGFYPSDIAVEWESNGQPENNYKTTPPVLDSDGSFFLYSRLTVDKSRWQEGNVFSCSVMHEALHYHYTQKSLSLSLGK
light: SYELTQPPSVSVSPGQTARITCSGDALTSKYVAWYQQKSGQAPVLVIYEDTRRPSGIPERFSGSSSGTMATLTISGAQVEDEADYYCYSTDASGHQRVFGGGTKLTVLGQPKAAPSVTLFPPSSEELQANKATLVCLISDFYPGAVTVAWKADSSPVKAGVETTTPSKQSNNKYAASSYLSLTPEQWKSHRSYSCQVTHEGSTVEKTVAPTECS
Regarding B4, the binding result in experiment [3] was “no binding (tested: C2a tested up to 500 nM)”; with human C2b it was “no binding (tested: C2b tested up to 1000 nM)”. This molecule also displayed a Kd in experiment [4] of 8 nM.

What is called Kd is the constant that tells how readily two partners part at equilibrium.
